Patent CN112480260A (FUZHOU MAIXIN BIOTECHNOLOGY DEV CO LTD, dated 2021)

Molecular target: 重组PSMA蛋白片段 (human PSMA residues 307-750 with β2M and His tag, expressed in E. coli) (human, UniProt Q04609 307-750)
Experiment: indirect ELISA, PSMA protein coated at 100 μg/ml, antibody titrated from 2000 to 0.625 ng/mL; affinity constant from the antibody concentration at half of the plateau OD

重组PSMA蛋白片段 (human PSMA residues 307-750 with β2M and His tag, expressed in E. coli), sequence (Q04609 307-750): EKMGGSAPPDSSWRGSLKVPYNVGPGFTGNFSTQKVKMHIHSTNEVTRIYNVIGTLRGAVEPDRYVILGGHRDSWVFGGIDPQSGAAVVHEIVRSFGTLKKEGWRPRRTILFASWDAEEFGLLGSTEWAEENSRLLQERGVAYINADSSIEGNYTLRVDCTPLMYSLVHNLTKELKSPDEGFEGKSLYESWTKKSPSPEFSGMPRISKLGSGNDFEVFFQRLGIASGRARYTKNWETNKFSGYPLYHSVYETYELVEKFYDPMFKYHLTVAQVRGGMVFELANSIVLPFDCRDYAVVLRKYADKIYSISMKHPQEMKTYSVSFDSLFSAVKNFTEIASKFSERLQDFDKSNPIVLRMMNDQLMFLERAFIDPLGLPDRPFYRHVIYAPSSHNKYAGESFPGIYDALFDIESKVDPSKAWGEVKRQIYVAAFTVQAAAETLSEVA

B1: 抗PSMA蛋白单克隆抗体(11D1E5E10) (antibody, V domains shown)
VH: QVQLQQSGPELARPGASVKMSCKASGYTFTSYTIHWVKQRPGQGLEWIGYISPSSGYTNYNQNFKDQATLTADISSSTAYMQLSSLTSEDSAVYYCARSGYRYDWYFDVWGAGTTVTVSS
VL: DIQMTQSPSSLSASLGGKVTITCKASQDINKYIAWYQHKPGKGPRLLIHYTSTLQPGIPSRFSGSGSGRDYSFSISNLEPEDIATYYCLQYDNLWTFGGGTKLEIK
notes: also called CGMCC NO.19683; PSMA单克隆抗体
Ka: 4.96e+09 M⁻¹
